Consider two substances from PMC9166738.

The target in assay [1] is Fdh3B-CodhA fusion protein with (GGGGS)1 linker (Thermococcus onnurineus NA1). Description: SEC; Strep-tag purified CFOR complex on a calibrated Superdex 200 10/300 GL column in buffer W, 0.5 ml/min, anaerobic; complex formed in cells and co-purified beforehand.
The target of assay [2] is Formate dehydrogenase catalytic subunit Fdh3A with N-terminal Strep-tag (Thermococcus onnurineus NA1). The description is as above.

By stoichiometry N is commonly meant a count of units in the complex or per binding partner. Substance “CO dehydrogenase catalytic subunit CodhB (enzyme)” registered a stoichiometry N in assay [1] of 2.

With “Fdh3B-CodhA fusion protein with (GGGGS)1 linker”, the stoichiometry N in assay [2] worked out at 1.
